Patent US20210238283A1 (Y BIOLOGICS, published 2021)
Substitutions are numbered along the chain they refer to.

T1: human LAG-3 overexpressed on cells (human, UniProt P18627 23-525)
T1 sequence (looked up): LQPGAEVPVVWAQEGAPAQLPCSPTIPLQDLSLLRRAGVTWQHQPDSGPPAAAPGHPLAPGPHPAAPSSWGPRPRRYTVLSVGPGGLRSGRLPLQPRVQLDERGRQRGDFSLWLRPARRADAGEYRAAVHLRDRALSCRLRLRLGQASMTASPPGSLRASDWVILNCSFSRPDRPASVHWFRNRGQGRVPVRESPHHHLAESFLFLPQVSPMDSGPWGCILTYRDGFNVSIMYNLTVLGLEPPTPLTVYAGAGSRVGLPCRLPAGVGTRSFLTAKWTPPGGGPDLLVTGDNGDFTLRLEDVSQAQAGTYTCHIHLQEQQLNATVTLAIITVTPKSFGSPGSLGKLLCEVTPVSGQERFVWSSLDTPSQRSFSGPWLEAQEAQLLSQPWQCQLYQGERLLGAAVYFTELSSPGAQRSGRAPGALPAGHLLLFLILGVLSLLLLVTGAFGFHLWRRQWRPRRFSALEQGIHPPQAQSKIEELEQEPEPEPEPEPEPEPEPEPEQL

T2: mouse LAG-3 overexpressed on HEK293E cells (mouse, UniProt Q61790 24-521)
T2 construct: whole, on cells; also called HEK293E-mLAG3; mLAG3 (Mouse)
T2 sequence (looked up): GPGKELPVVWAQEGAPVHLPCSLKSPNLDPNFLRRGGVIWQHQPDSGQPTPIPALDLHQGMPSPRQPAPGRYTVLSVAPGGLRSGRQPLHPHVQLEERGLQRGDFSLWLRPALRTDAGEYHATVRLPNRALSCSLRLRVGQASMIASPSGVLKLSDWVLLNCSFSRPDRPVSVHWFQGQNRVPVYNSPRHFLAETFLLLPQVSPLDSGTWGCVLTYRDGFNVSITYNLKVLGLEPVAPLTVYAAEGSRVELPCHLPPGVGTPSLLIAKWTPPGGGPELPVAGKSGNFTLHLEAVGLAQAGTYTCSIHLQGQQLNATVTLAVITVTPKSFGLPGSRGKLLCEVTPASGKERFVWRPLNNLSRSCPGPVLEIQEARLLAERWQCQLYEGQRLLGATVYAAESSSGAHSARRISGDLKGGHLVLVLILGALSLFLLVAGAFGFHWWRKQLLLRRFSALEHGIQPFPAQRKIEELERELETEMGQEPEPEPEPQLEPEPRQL

B1: LAG3-1E09_CDR_1D04 (antibody, V domains shown)
VH: EVQLVESGGDLVKPGGSLRLSCAASGFSFSDHYMNWIRQAPGKGLEWVAYIDTSATYIYYADSVKGRFTISRDNAKNSLYLQMNSLRAEDTAVYYCARDNWGSLDYWGQGTLVTVSS
VL: DIQMTQSPSSLSASVGDRVTITCQASQDISNYLNWYQQKPGKAPNLLIYDASNLETGVPSRFSGSGSGTDFTLTISSLQPEDFATYYCQQSYITPYTFGQGTKLDIK
notes: Tested as full IgG
B2: LAG3-1E09_FR_1F03 (antibody, V domains shown)
VH: B1 VH with D10G
VL: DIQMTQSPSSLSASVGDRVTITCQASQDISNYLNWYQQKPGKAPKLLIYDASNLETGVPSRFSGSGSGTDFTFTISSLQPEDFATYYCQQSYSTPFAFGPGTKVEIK
notes: Tested as full IgG
B3: LAG3-1E09_AM_2E09 (antibody, V domains shown)
VH: B1 VH with I37V, S54N
VL: DIQMTQSSSSLSASVGDRVTITCQASQDITDFLNWYQQKPGKAPKLLIYDASNLETGIPSRFSGSGSGREFTLTINSLQPEDVASYYCQQSYTTPLTFGGGTKVDIK
notes: Tested as full IgG
B4: LAG3-1E09_LS_1E06 (antibody, V domains shown)
VH: B1 VH
VL: B1 VL with N31H, Q37R, N45K, D70L, I93S, D105E
notes: Tested as full IgG
B5: LAG3-1E09_CDR_1E03 (antibody, V domains shown)
VH: B1 VH with S28T, S30N, S54T
VL: B1 VL with P8L, R18S, Q37R, N45E, A51T, I93S, T94I, L104V, D105E
notes: Tested as full IgG
B6: LAG3-1E09_FR_1G07 (antibody, V domains shown)
VH: B1 VH with D10G, I37V
VL: DIQMTQSPSSLSASVGDRVTITCRASQGISTYLNWYQQKPGKAPKLLIYDASNLETGVPSRFSGSGSGTDFTLTISGLQPDDFALYYCQQSYTTPYSFGPGTKVEIK
notes: Tested as full IgG
B7: LAG3-1E09_LS_1G11 (antibody, V domains shown)
VH: B1 VH with K13Q, S28N, I37V, S54T
VL: B1 VL with S30D, N31K, N45K, I93S, Y96N
notes: Tested as full IgG
B8: LAG3-1E09_AM_2H06 (antibody, V domains shown)
VH: B1 VH with S28T, I37V, S54I
VL: B1 VL with K39T, N45K, S91G, I93G, F98Y, D105E
notes: Tested as full IgG
B9: LAG3-1E09_AM_2G11 (antibody, V domains shown)
VH: B1 VH with S30T, I37V
VL: DIQMTQSPSSLSASVGDRVTITCRASQSISYYLNWYQQRPGKAPKLLIYDASNLETGVPSRFSGSGTGTEFTLTISSLQPEDFATYYCQQSYSTPFAFGPGTKVEIK
notes: Tested as full IgG
B10: LAG3-1E09_FR_1A10 (antibody, V domains shown)
VH: B1 VH with D10G
VL: DIQMTQSPSSLSASVGDRVTITCQANQDISNYLNWYQQKPGKAPKLLIYDASNLETGVPSRFSGGGSGTDFTLTINNLQPEDFATYYCHHSYNTPITFGQGTRLEIK
notes: Tested as full IgG
B11: LAG3-1E09_AM_1F09 (antibody, V domains shown)
VH: B1 VH with S28N
VL: B1 VL with S30R, N34G, N53T, T74A, I93S, D105E
notes: Tested as full IgG

Biological target: T1, human LAG-3 overexpressed on cells
Experiment: cell-based or functional assay

B1 was tested. Which “EC50 (µg/ml), LAG3/MHC class II Blockade bioassay” value did it give?
The value was 0.655 µg/mL.

With B2 as the binder, how does the “EC50 (µg/ml), LAG3/MHC class II Blockade bioassay” value read?
Its value is 0.485 µg/mL.

Which “EC50 (µg/ml), LAG3/MHC class II Blockade bioassay” value does the source give for B3 here?
The value was 0.482 µg/mL.

Which “EC50 (µg/ml), LAG3/MHC class II Blockade bioassay” value does the source give for B4 here?
The value was 0.151 µg/mL.

How did the “EC50 (µg/ml), LAG3/MHC class II Blockade bioassay” value turn out when B5 was run?
Its value is 1.06 µg/mL.

With B6 as the binder, how does the “EC50 (µg/ml), LAG3/MHC class II Blockade bioassay” value read?
Its value is 0.242 µg/mL.

How did the “EC50 (µg/ml), LAG3/MHC class II Blockade bioassay” value turn out when B7 was run?
Its value is 1.51 µg/mL.

How did the “EC50 (µg/ml), LAG3/MHC class II Blockade bioassay” value turn out when B8 was run?
Its value is 0.606 µg/mL.

For B9, which “EC50 (µg/ml), LAG3/MHC class II Blockade bioassay” value is on record?
Its value is 0.246 µg/mL.

Which “EC50 (µg/ml), LAG3/MHC class II Blockade bioassay” value does the source give for B10 here?
The value was 0.811 µg/mL.

B11 was tested. Which “EC50 (µg/ml), LAG3/MHC class II Blockade bioassay” value did it give?
The value was 0.488 µg/mL.

Biological target: T2, mouse LAG-3 overexpressed on HEK293E …
Experiment: flow cytometry, HEK293E cells overexpressing mouse LAG-3
Experimental: (§1) After that, the cells were washed three times with PBS containing 2% FBS and then subjected to the reaction for 30 minutes at 4° C. with anti-human IgG antibody (#FI-3000, Vectorlabs) linked with FITC fluorescent. The cells were washed by the same washing process as above followed by suspension in 0.2 ml PBS containing 2% FBS. The cells were then analyzed by FACSCanto II flow cytometer.

Does B11 bind?
Result: no binding (tested: 2 µg/ml)

Biological target: T2, mouse LAG-3 overexpressed on HEK293E …
Experiment: flow cytometry, HEK293E cells overexpressing LAG-3, antibody 2 µg/ml
Experimental: as §1

Does B1 bind?
Result: binds

Does B2 bind?
Result: binds

Does B3 bind?
Result: binds

Does B4 bind?
Result: binds

Does B5 bind?
Result: binds

Does B6 bind?
Result: binds

Does B7 bind?
Result: binds

Does B8 bind?
Result: binds

Does B9 bind?
Result: binds

Does B10 bind?
Result: binds
